Results from patent EP4745153A1, “GLP-1, GIP AND GCG RECEPTOR […] USE THEREOF” (Jiangsu Hengrui Pharmaceuticals Co., Ltd., priority 2023, dated 2025).
Where two headings read alike, the source gives them in different places. Starred links: 1 amine or outer side, 2 acyl side, 3 side chain; linkers in the order of their positions; H or OH if unused. Non-standard residues stand in square brackets, D forms with d. Groups on a side chain read outwards from the residue. No end group written: not given here. *: point of attachment. C20 diacid = O=C(O)CCCCCCCCCCCCCCCCCCC(=O)*; γGlu = O=C(O)[C@H](CCC(=O)[*:2])N[*:1]; αMeL = CC(C)C[C@](C)(N)C(=O)O; AEEA = NCCOCCOCC(=O)O; Aib = CC(C)(N)C(=O)O

T1: human glucose-dependent insulinotropic polypeptide receptor (human, UniProt P48546 22-466)
T1 sequence (looked up): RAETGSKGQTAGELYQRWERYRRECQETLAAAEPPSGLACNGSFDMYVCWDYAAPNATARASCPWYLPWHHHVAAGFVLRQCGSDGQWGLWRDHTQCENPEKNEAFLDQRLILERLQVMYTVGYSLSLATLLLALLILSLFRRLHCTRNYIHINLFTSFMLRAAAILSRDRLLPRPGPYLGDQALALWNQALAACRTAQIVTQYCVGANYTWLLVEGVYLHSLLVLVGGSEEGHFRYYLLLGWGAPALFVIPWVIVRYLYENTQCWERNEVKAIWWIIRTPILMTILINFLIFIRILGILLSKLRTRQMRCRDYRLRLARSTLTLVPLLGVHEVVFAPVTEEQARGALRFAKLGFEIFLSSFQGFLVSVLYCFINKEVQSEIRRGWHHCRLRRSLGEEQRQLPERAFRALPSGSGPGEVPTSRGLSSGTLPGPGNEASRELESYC


Assays:
Test in all cases: cell-based or functional assay
[1] = biological target: T2, human glucagon-like peptide-1 receptor (human, UniProt P43220 24-463)
[2] = biological target: T1, human glucose-dependent insulinotropic …
[3] = biological target: T3, human glucagon receptor (human, UniProt P47871 26-477)
T3 sequence (P47871 26-477): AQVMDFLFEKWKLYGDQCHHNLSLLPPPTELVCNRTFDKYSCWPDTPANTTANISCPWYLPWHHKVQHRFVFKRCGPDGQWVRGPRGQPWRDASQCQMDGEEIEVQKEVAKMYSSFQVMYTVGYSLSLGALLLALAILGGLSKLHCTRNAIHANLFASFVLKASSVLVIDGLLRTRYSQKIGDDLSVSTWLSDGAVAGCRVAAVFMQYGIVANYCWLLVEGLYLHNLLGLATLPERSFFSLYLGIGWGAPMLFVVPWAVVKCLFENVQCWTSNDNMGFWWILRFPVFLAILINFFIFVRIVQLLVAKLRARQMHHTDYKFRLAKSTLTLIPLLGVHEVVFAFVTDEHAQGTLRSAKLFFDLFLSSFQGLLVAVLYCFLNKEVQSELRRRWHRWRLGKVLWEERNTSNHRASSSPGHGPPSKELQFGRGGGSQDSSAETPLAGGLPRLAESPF

[4] = biological target: T2, human glucagon-like peptide-1 receptor; remark: listed apart in the source
[5] = biological target: T1, human glucose-dependent insulinotropic …; remark: listed apart in the source
[6] = biological target: T3, human glucagon receptor; remark: listed apart in the source

| Binder | Activity against human GLP-1R (EC50 nM) [1] | Activity against human GIPR (EC50 nM) [2] | Activity against human GCGR (EC50 nM) [3] | Activity against human GLP-1R (EC50 nM) [4] | Activity against human GIPR (EC50 nM) [5] | Activity against human GCGR (EC50 nM) [6] |
| --- | --- | --- | --- | --- | --- | --- |
| H[Aib]HGTFTSDYSILLEK([AEEA-AEEA-γGlu-C20 diacid])QAAQEFVEWLLA[dE]GPSSGAPPPS-NH2 (N-terminus assumed; SMILES CC[C@H](C)[C@H](NC(=O)[C@H](CO)NC(=O)[C@H](Cc1ccc(O)cc1)NC(=O)[C@H](CC(=O)O)NC(=O)[C@H](CO)NC(=O)[C@@H](NC(=O)[C@H](Cc1ccccc1)NC(=O)[C@@H](NC(=O)CNC(=O)[C@H](Cc1c[nH]cn1)NC(=O)C(C)(C)NC(=O)[C@@H](N)Cc1c[nH]cn1)[C@@H](C)O)[C@@H](C)O)C(=O)N[C@@H](CC(C)C)C(=O)N[C@@H](CC(C)C)C(=O)N[C@@H](CCC(=O)O)C(=O)N[C@@H](CCCCNC(=O)COCCOCCNC(=O)COCCOCCNC(=O)CC[C@H](NC(=O)CCCCCCCCCCCCCCCCCCC(=O)O)C(=O)O)C(=O)N[C@@H](CCC(N)=O)C(=O)N[C@@H](C)C(=O)N[C@@H](C)C(=O)N[C@@H](CCC(N)=O)C(=O)N[C@@H](CCC(=O)O)C(=O)N[C@@H](Cc1ccccc1)C(=O)N[C@H](C(=O)N[C@@H](CCC(=O)O)C(=O)N[C@@H](Cc1c[nH]c2ccccc12)C(=O)N[C@@H](CC(C)C)C(=O)N[C@@H](CC(C)C)C(=O)N[C@@H](C)C(=O)N[C@H](CCC(=O)O)C(=O)NCC(=O)N1CCC[C@H]1C(=O)N[C@@H](CO)C(=O)N[C@@H](CO)C(=O)NCC(=O)N[C@@H](C)C(=O)N1CCC[C@H]1C(=O)N1CCC[C@H]1C(=O)N1CCC[C@H]1C(=O)N[C@@H](CO)C(N)=O)C(C)C) [Compound No. 0153] | 0.051 nM | 0.01 nM | 0.334 nM | – | – | – |
| H[Aib]HGTFTSDYSILLEK([AEEA-AEEA-γGlu-C20 diacid])QAAQEFVEWLLAGGPSSGAPPPS-NH2 (N-terminus assumed; SMILES CC[C@H](C)[C@H](NC(=O)[C@H](CO)NC(=O)[C@H](Cc1ccc(O)cc1)NC(=O)[C@H](CC(=O)O)NC(=O)[C@H](CO)NC(=O)[C@@H](NC(=O)[C@H](Cc1ccccc1)NC(=O)[C@@H](NC(=O)CNC(=O)[C@H](Cc1c[nH]cn1)NC(=O)C(C)(C)NC(=O)[C@@H](N)Cc1c[nH]cn1)[C@@H](C)O)[C@@H](C)O)C(=O)N[C@@H](CC(C)C)C(=O)N[C@@H](CC(C)C)C(=O)N[C@@H](CCC(=O)O)C(=O)N[C@@H](CCCCNC(=O)COCCOCCNC(=O)COCCOCCNC(=O)CC[C@H](NC(=O)CCCCCCCCCCCCCCCCCCC(=O)O)C(=O)O)C(=O)N[C@@H](CCC(N)=O)C(=O)N[C@@H](C)C(=O)N[C@@H](C)C(=O)N[C@@H](CCC(N)=O)C(=O)N[C@@H](CCC(=O)O)C(=O)N[C@@H](Cc1ccccc1)C(=O)N[C@H](C(=O)N[C@@H](CCC(=O)O)C(=O)N[C@@H](Cc1c[nH]c2ccccc12)C(=O)N[C@@H](CC(C)C)C(=O)N[C@@H](CC(C)C)C(=O)N[C@@H](C)C(=O)NCC(=O)NCC(=O)N1CCC[C@H]1C(=O)N[C@@H](CO)C(=O)N[C@@H](CO)C(=O)NCC(=O)N[C@@H](C)C(=O)N1CCC[C@H]1C(=O)N1CCC[C@H]1C(=O)N1CCC[C@H]1C(=O)N[C@@H](CO)C(N)=O)C(C)C) [Compound No. 0152] | 0.054 nM | 0.009 nM | 0.29 nM | – | – | – |
| H[Aib]HGTFTSDLSI[αMeL]LEK([AEEA-AEEA-γGlu-C20 diacid])KAAQEFVEWLLAGGPSSGAPPPS-NH2 (N-terminus assumed; SMILES CC[C@H](C)[C@H](NC(=O)[C@H](CO)NC(=O)[C@H](CC(C)C)NC(=O)[C@H](CC(=O)O)NC(=O)[C@H](CO)NC(=O)[C@@H](NC(=O)[C@H](Cc1ccccc1)NC(=O)[C@@H](NC(=O)CNC(=O)[C@H](Cc1c[nH]cn1)NC(=O)C(C)(C)NC(=O)[C@@H](N)Cc1c[nH]cn1)[C@@H](C)O)[C@@H](C)O)C(=O)N[C@@](C)(CC(C)C)C(=O)N[C@@H](CC(C)C)C(=O)N[C@@H](CCC(=O)O)C(=O)N[C@@H](CCCCNC(=O)COCCOCCNC(=O)COCCOCCNC(=O)CC[C@H](NC(=O)CCCCCCCCCCCCCCCCCCC(=O)O)C(=O)O)C(=O)N[C@@H](CCCCN)C(=O)N[C@@H](C)C(=O)N[C@@H](C)C(=O)N[C@@H](CCC(N)=O)C(=O)N[C@@H](CCC(=O)O)C(=O)N[C@@H](Cc1ccccc1)C(=O)N[C@H](C(=O)N[C@@H](CCC(=O)O)C(=O)N[C@@H](Cc1c[nH]c2ccccc12)C(=O)N[C@@H](CC(C)C)C(=O)N[C@@H](CC(C)C)C(=O)N[C@@H](C)C(=O)NCC(=O)NCC(=O)N1CCC[C@H]1C(=O)N[C@@H](CO)C(=O)N[C@@H](CO)C(=O)NCC(=O)N[C@@H](C)C(=O)N1CCC[C@H]1C(=O)N1CCC[C@H]1C(=O)N1CCC[C@H]1C(=O)N[C@@H](CO)C(N)=O)C(C)C) [Compound No. 0143] | – | – | – | 0.09 nM | 0.004 nM | 0.423 nM |
| H[Aib]HGTFTSDLSILLEK([AEEA-AEEA-γGlu-C20 diacid])KAAQEFVEWLLA[dE]GPSSGAPPPS-NH2 [Compound No. 0144] | – | – | – | 0.035 nM | 0.012 nM | 0.311 nM |
| H[Aib]HGTFTSDYSI[αMeL]LEK([AEEA-AEEA-γGlu-C20 diacid])KAAQEFVEWLLA[dE]GPSSGAPPPS-NH2 (N-terminus assumed; SMILES CC[C@H](C)[C@H](NC(=O)[C@H](CO)NC(=O)[C@H](Cc1ccc(O)cc1)NC(=O)[C@H](CC(=O)O)NC(=O)[C@H](CO)NC(=O)[C@@H](NC(=O)[C@H](Cc1ccccc1)NC(=O)[C@@H](NC(=O)CNC(=O)[C@H](Cc1c[nH]cn1)NC(=O)C(C)(C)NC(=O)[C@@H](N)Cc1c[nH]cn1)[C@@H](C)O)[C@@H](C)O)C(=O)N[C@@](C)(CC(C)C)C(=O)N[C@@H](CC(C)C)C(=O)N[C@@H](CCC(=O)O)C(=O)N[C@@H](CCCCNC(=O)COCCOCCNC(=O)COCCOCCNC(=O)CC[C@H](NC(=O)CCCCCCCCCCCCCCCCCCC(=O)O)C(=O)O)C(=O)N[C@@H](CCCCN)C(=O)N[C@@H](C)C(=O)N[C@@H](C)C(=O)N[C@@H](CCC(N)=O)C(=O)N[C@@H](CCC(=O)O)C(=O)N[C@@H](Cc1ccccc1)C(=O)N[C@H](C(=O)N[C@@H](CCC(=O)O)C(=O)N[C@@H](Cc1c[nH]c2ccccc12)C(=O)N[C@@H](CC(C)C)C(=O)N[C@@H](CC(C)C)C(=O)N[C@@H](C)C(=O)N[C@H](CCC(=O)O)C(=O)NCC(=O)N1CCC[C@H]1C(=O)N[C@@H](CO)C(=O)N[C@@H](CO)C(=O)NCC(=O)N[C@@H](C)C(=O)N1CCC[C@H]1C(=O)N1CCC[C@H]1C(=O)N1CCC[C@H]1C(=O)N[C@@H](CO)C(N)=O)C(C)C) [Compound No. 0139] | – | – | – | 0.043 nM | 0.007 nM | 0.43 nM |
| H[Aib]HGTFTSDLSI[αMeL]LEK([AEEA-AEEA-γGlu-C20 diacid])KAAQEFVEWLLA[dE]GPSSGAPPPS-NH2 (N-terminus assumed; SMILES CC[C@H](C)[C@H](NC(=O)[C@H](CO)NC(=O)[C@H](CC(C)C)NC(=O)[C@H](CC(=O)O)NC(=O)[C@H](CO)NC(=O)[C@@H](NC(=O)[C@H](Cc1ccccc1)NC(=O)[C@@H](NC(=O)CNC(=O)[C@H](Cc1c[nH]cn1)NC(=O)C(C)(C)NC(=O)[C@@H](N)Cc1c[nH]cn1)[C@@H](C)O)[C@@H](C)O)C(=O)N[C@@](C)(CC(C)C)C(=O)N[C@@H](CC(C)C)C(=O)N[C@@H](CCC(=O)O)C(=O)N[C@@H](CCCCNC(=O)COCCOCCNC(=O)COCCOCCNC(=O)CC[C@H](NC(=O)CCCCCCCCCCCCCCCCCCC(=O)O)C(=O)O)C(=O)N[C@@H](CCCCN)C(=O)N[C@@H](C)C(=O)N[C@@H](C)C(=O)N[C@@H](CCC(N)=O)C(=O)N[C@@H](CCC(=O)O)C(=O)N[C@@H](Cc1ccccc1)C(=O)N[C@H](C(=O)N[C@@H](CCC(=O)O)C(=O)N[C@@H](Cc1c[nH]c2ccccc12)C(=O)N[C@@H](CC(C)C)C(=O)N[C@@H](CC(C)C)C(=O)N[C@@H](C)C(=O)N[C@H](CCC(=O)O)C(=O)NCC(=O)N1CCC[C@H]1C(=O)N[C@@H](CO)C(=O)N[C@@H](CO)C(=O)NCC(=O)N[C@@H](C)C(=O)N1CCC[C@H]1C(=O)N1CCC[C@H]1C(=O)N1CCC[C@H]1C(=O)N[C@@H](CO)C(N)=O)C(C)C) [Compound No. 0142] | – | – | – | 0.058 nM | 0.007 nM | 0.49 nM |
